Test results as given in paper PMC9655578.

What was measured:
[1] = substrate: O=C1C[C@@H](c2ccc(O)cc2)Oc2cc(O)cc(O)c21; assay: purified protein; conditions: CYP:Pdx:PdR 1:8:2 (P. putida redox partners; CYP 1 µM), 500 µM NADH, phosphate buffer; 3'-hydroxylation
[2] = substrate: O=c1cc(-c2ccc(O)cc2)oc2cc(O)cc(O)c12; assay: purified protein; conditions: CYP:Pdx:PdR 1:8:2 (P. putida redox partners; CYP 1 µM), 500 µM NADH, phosphate buffer; 3'-hydroxylation

B1: CYP101D5 (Sphingomonas echinoides) (protein)
chain: MSAAEEIHTPRPAHVPADRVVELDMYNPQGIEKGYLEAWTSLQTADLPSMVWTPLNGGHWIATRGELIQDIYCDPDHFSSHVIFIPKAAGEKYAMVPSKMDPPEHRPYREVVDKGLNLRAIREREPAVRAHAIALIEAFADKGHCDFVEEFSGEFPIRVFMMMADLPMEDSPKLRAFAAGMTRPEGNTPTEMADALDRANRSFFDYVSPIIDARMGGDGTDILTLSINSQVNGAPMEREKLLGMVSLLLLAGLDTVTNFLNMTMDYLGRHPDKVRELTENPTEIRRGVEELFRRFPLVAAARMVAHDVERDGVELKQGEMVLLPTALHGLDPRVNADPWEVDFQRKRPAHSTFGNGPHRCAGLHLARLETTVMLEEWLKRIPTFRVVPGTGPTYHSGVVASVDGVRLEW
Km [1]: 26.39 ± 2.23 µM | kcat [1]: 0.0195 s⁻¹ | Km [2]: 46.28 ± 4.88 µM | kcat [2]: 0.0138 s⁻¹
